Paper PMC3554631, “Structural Basis of a Histone H3 Lysine 4 Demethylase Required for Stem Elongation in Rice” (PLoS Genetics, 2013)

Assays:
Type in all cases: cell-based
Conditions in all cases: mutant expressed transiently in tobacco cells, immunostaining of nuclei, at least 30 nuclei per transfection
H3K4me3 = assay: H3K4 demethylation assay in tobacco cells of JMJ703 substitution mutants, H3K4me3
Experimental: (§1) The cDNA fragment of the J3NCZ region was amplified using primers FAJ3NCZ-F and FAJ3NCZ-R and then cloned into pFA121 vector modified from pBI121 (GenBank: AF485783.1), in which GUS was replaced by 2×FLAG∶2×HA tag. The pFA121-J3NCZ plasmid was transferred into Agrobacterium tumefaciens strain EHA105 cells for tobacco infection with the help of Agrobacterium cells harboring P19 plasmids. For in vivo histone demethylation assay, tobacco infection and nuclei isolation were performed as previously described. The immunostaining protocol was modified from http://sites.bio.indiana.edu/~pikaardlab. Briefly, the nucleus solution was placed on a poly-lysine coated slide, air dried, and then refixed with 4% formaldehyde in KPBS (1.28 M NaCl, 20 mM KCl, 80 mM Na2HPO4, 20 mM KH2PO4, pH7.2) containing 1% Triton X-100 for 20 min. After 3 washes with KPBS-1% Triton, slides were blocked with blocking solution (1% BSA in KPBS-1% Triton) and incubated at 37°C for 30 min. The blocking solution was washed off with KPBS-1% Triton and the slides were incubated with both anti-HA and histone méthylation specific antibodies diluted in blocking solution to 1∶300 at 4°C overnight. After washing with KPBS, slides were blocked and incubated with fluorescent-labeled antibodies at 37°C for 2 h. After washing with KPBS thrice, nuclei were stained with 5 µg/mL 4,6-diamidino-2-phenylindole (DAPI), coated with a drop of VECTASHIELD Mounting Medium (H-1000, Vector Laboratories), and then covered with a coverslip followed by confocal microscope (Leica) detection. In vitro histone demethylation assays were performed as previously described. FA-J3NCZ was purified after overexpression with Anti-FLAG M2 magnetic beads according the manufacturer's instruction (Sigma).
(§2) Supplementary file pgen.1003239.s006.tif: Figure S6 Demethylation assays for JMJ703 substitution mutants that have been produced based on the structural data. The mutant names are labeled at the top left corner of each panel. Image panels from left to right are staining by DAPI, anti-HA and anti-methylated histones, respectively. Bar = 10 µm. At least 30 nuclei that expressed JMJ703 per transfection were observed and imaged. (TIF) Click here for additional data file.

H3K4me2 = assay: H3K4 demethylation assay in tobacco cells of JMJ703 substitution mutants, H3K4me2
Experimental: as §1, §2

H3K4me1 = assay: H3K4 demethylation assay in tobacco cells of JMJ703 substitution mutants, H3K4me1
Experimental: as §1, §2

B1: H394A: JMJ703 substitution mutant, Fe-binding residue (protein, UniProt Q53WJ1 1-1238, looked up, variant H394A)
Lysine-specific demethylase …: MMGVTTTLNEDTEPSIPPGFGPFATLPLWGIHNDAKPAVTHSTPVQALQSIRKDSEECQPSAAVSRSDTPCSTSGTQTCRKSLRNRPPIDYSRFEHISDEDSDVEIVEKDVSSTRRRQQLPKGVLRGCAECSDCQKVIAKWNPAGARRPVLDEAPVFYPTEEEFEDTLKYIESIRPMAEPYGICRIVPPSSWKPPCLLKDKSIWEGSKFSTRVQKVDKLQNRKSSKKGRRGGMMKRRKLAESEENSATAHTQTGMQQSPERFGFEPGPEFTLQTFQKYADDFSKQYFRKDTSMDSVPSVEDIEGEYWRIVEVPTEEIEVIYGADLETGTFGSGFPKLSPETKSDAEDKYAQSGWNLNNLPRLQGSVLSFEGGDISGVLVPWVYVGMCFSSFCWAVEDHHLYSLNYMHWGAPKLWYGVPGKDAVNLESAMRKHLPELFEEQPDLLHNLVTQFSPSLLKSEGVHVYRCVQHEGEFVLTFPRAYHAGFNCGFNCAEAVNVAPIDWLPIGHNAVELYREQARKITISHDKLLLGAAREAIRAQWDILFLKRNTADNMRWKSICGADSTIFKALKARIETELVQRKTLGVPAQSRKMDAEFDSIDRECALCYYDLHLSASGCPCCPEKYACLVHAKQLCSCDWDKRFFLFRYDVNELNILADALGGKLSAIHRWGVSDLGLSLSSCVKREKVQDSKTVRRLTDGPRRSYMSQASAVSLVSSSTSNEQKDEGNKIMKIASPQTNNVCPSVEQRKSENISPLKEPCVRNELSCTTNSDSNGLQYNGGLGGHKGSAPGLPVSSSPSFSSNVATRPISTSSVSMKIVQGLVASKSCIQASSRTGDSRSLLGEHHNRSPAMIHDGTNMKSSLESSNNSCRLIASDYNATPCHSSKDQVLVTPGTNASVVTLKDSSQVHSASSQQFVRTGPWTQSASHEASSPSTSALKPSLDPPAMKNLYGGFTQGSAHPGPPSFSNQQPNDGRLQRTSESLPGVEARARGHPTVTAQPALEIHSRNGGAQKGPRIANVVHRFKCSVEPLEIGVVLSGRLWSSSQAIFPKGFRSRVKYFSIVDPIQMAYYISEILDAGMQGPLFMVKLENCPGEVFINLSPTKCWNMVRERLNMEIRRQLNMGKSNLPTLQPPGSVDGLEMFGLLSPPIVQAIWARDRDHICTEYWRSRPHVLIEDPNNRHMLSQGPPLLALRGLIQRANRDELQVLRSLMTNSNNLDDSSRQQAAHIIEEEIAKQLC
no: H3K4me3 demethylation activity (H3K4me3) | H3K4me2 demethylation activity (H3K4me2) | H3K4me1 demethylation activity (H3K4me1)

B2: L447A: JMJ703 substitution mutant, residue conserved in H3K4 demethylases (protein, UniProt Q53WJ1 1-1238, looked up, variant L447A)
Lysine-specific demethylase …: MMGVTTTLNEDTEPSIPPGFGPFATLPLWGIHNDAKPAVTHSTPVQALQSIRKDSEECQPSAAVSRSDTPCSTSGTQTCRKSLRNRPPIDYSRFEHISDEDSDVEIVEKDVSSTRRRQQLPKGVLRGCAECSDCQKVIAKWNPAGARRPVLDEAPVFYPTEEEFEDTLKYIESIRPMAEPYGICRIVPPSSWKPPCLLKDKSIWEGSKFSTRVQKVDKLQNRKSSKKGRRGGMMKRRKLAESEENSATAHTQTGMQQSPERFGFEPGPEFTLQTFQKYADDFSKQYFRKDTSMDSVPSVEDIEGEYWRIVEVPTEEIEVIYGADLETGTFGSGFPKLSPETKSDAEDKYAQSGWNLNNLPRLQGSVLSFEGGDISGVLVPWVYVGMCFSSFCWHVEDHHLYSLNYMHWGAPKLWYGVPGKDAVNLESAMRKHLPELFEEQPDLLHNAVTQFSPSLLKSEGVHVYRCVQHEGEFVLTFPRAYHAGFNCGFNCAEAVNVAPIDWLPIGHNAVELYREQARKITISHDKLLLGAAREAIRAQWDILFLKRNTADNMRWKSICGADSTIFKALKARIETELVQRKTLGVPAQSRKMDAEFDSIDRECALCYYDLHLSASGCPCCPEKYACLVHAKQLCSCDWDKRFFLFRYDVNELNILADALGGKLSAIHRWGVSDLGLSLSSCVKREKVQDSKTVRRLTDGPRRSYMSQASAVSLVSSSTSNEQKDEGNKIMKIASPQTNNVCPSVEQRKSENISPLKEPCVRNELSCTTNSDSNGLQYNGGLGGHKGSAPGLPVSSSPSFSSNVATRPISTSSVSMKIVQGLVASKSCIQASSRTGDSRSLLGEHHNRSPAMIHDGTNMKSSLESSNNSCRLIASDYNATPCHSSKDQVLVTPGTNASVVTLKDSSQVHSASSQQFVRTGPWTQSASHEASSPSTSALKPSLDPPAMKNLYGGFTQGSAHPGPPSFSNQQPNDGRLQRTSESLPGVEARARGHPTVTAQPALEIHSRNGGAQKGPRIANVVHRFKCSVEPLEIGVVLSGRLWSSSQAIFPKGFRSRVKYFSIVDPIQMAYYISEILDAGMQGPLFMVKLENCPGEVFINLSPTKCWNMVRERLNMEIRRQLNMGKSNLPTLQPPGSVDGLEMFGLLSPPIVQAIWARDRDHICTEYWRSRPHVLIEDPNNRHMLSQGPPLLALRGLIQRANRDELQVLRSLMTNSNNLDDSSRQQAAHIIEEEIAKQLC
no: H3K4me3 demethylation activity (H3K4me3) | H3K4me2 demethylation activity (H3K4me2) | H3K4me1 demethylation activity (H3K4me1)

B3: H482Y: JMJ703 substitution mutant, Fe-binding residue (protein, UniProt Q53WJ1 1-1238, looked up, variant H482Y)
Lysine-specific demethylase …: MMGVTTTLNEDTEPSIPPGFGPFATLPLWGIHNDAKPAVTHSTPVQALQSIRKDSEECQPSAAVSRSDTPCSTSGTQTCRKSLRNRPPIDYSRFEHISDEDSDVEIVEKDVSSTRRRQQLPKGVLRGCAECSDCQKVIAKWNPAGARRPVLDEAPVFYPTEEEFEDTLKYIESIRPMAEPYGICRIVPPSSWKPPCLLKDKSIWEGSKFSTRVQKVDKLQNRKSSKKGRRGGMMKRRKLAESEENSATAHTQTGMQQSPERFGFEPGPEFTLQTFQKYADDFSKQYFRKDTSMDSVPSVEDIEGEYWRIVEVPTEEIEVIYGADLETGTFGSGFPKLSPETKSDAEDKYAQSGWNLNNLPRLQGSVLSFEGGDISGVLVPWVYVGMCFSSFCWHVEDHHLYSLNYMHWGAPKLWYGVPGKDAVNLESAMRKHLPELFEEQPDLLHNLVTQFSPSLLKSEGVHVYRCVQHEGEFVLTFPRAYYAGFNCGFNCAEAVNVAPIDWLPIGHNAVELYREQARKITISHDKLLLGAAREAIRAQWDILFLKRNTADNMRWKSICGADSTIFKALKARIETELVQRKTLGVPAQSRKMDAEFDSIDRECALCYYDLHLSASGCPCCPEKYACLVHAKQLCSCDWDKRFFLFRYDVNELNILADALGGKLSAIHRWGVSDLGLSLSSCVKREKVQDSKTVRRLTDGPRRSYMSQASAVSLVSSSTSNEQKDEGNKIMKIASPQTNNVCPSVEQRKSENISPLKEPCVRNELSCTTNSDSNGLQYNGGLGGHKGSAPGLPVSSSPSFSSNVATRPISTSSVSMKIVQGLVASKSCIQASSRTGDSRSLLGEHHNRSPAMIHDGTNMKSSLESSNNSCRLIASDYNATPCHSSKDQVLVTPGTNASVVTLKDSSQVHSASSQQFVRTGPWTQSASHEASSPSTSALKPSLDPPAMKNLYGGFTQGSAHPGPPSFSNQQPNDGRLQRTSESLPGVEARARGHPTVTAQPALEIHSRNGGAQKGPRIANVVHRFKCSVEPLEIGVVLSGRLWSSSQAIFPKGFRSRVKYFSIVDPIQMAYYISEILDAGMQGPLFMVKLENCPGEVFINLSPTKCWNMVRERLNMEIRRQLNMGKSNLPTLQPPGSVDGLEMFGLLSPPIVQAIWARDRDHICTEYWRSRPHVLIEDPNNRHMLSQGPPLLALRGLIQRANRDELQVLRSLMTNSNNLDDSSRQQAAHIIEEEIAKQLC
no: H3K4me3 demethylation activity (H3K4me3) | H3K4me2 demethylation activity (H3K4me2) | H3K4me1 demethylation activity (H3K4me1)

B4: W381A: JMJ703 substitution mutant, residue conserved in H3K4 demethylases (protein, UniProt Q53WJ1 1-1238, looked up, variant W381A)
Lysine-specific demethylase …: MMGVTTTLNEDTEPSIPPGFGPFATLPLWGIHNDAKPAVTHSTPVQALQSIRKDSEECQPSAAVSRSDTPCSTSGTQTCRKSLRNRPPIDYSRFEHISDEDSDVEIVEKDVSSTRRRQQLPKGVLRGCAECSDCQKVIAKWNPAGARRPVLDEAPVFYPTEEEFEDTLKYIESIRPMAEPYGICRIVPPSSWKPPCLLKDKSIWEGSKFSTRVQKVDKLQNRKSSKKGRRGGMMKRRKLAESEENSATAHTQTGMQQSPERFGFEPGPEFTLQTFQKYADDFSKQYFRKDTSMDSVPSVEDIEGEYWRIVEVPTEEIEVIYGADLETGTFGSGFPKLSPETKSDAEDKYAQSGWNLNNLPRLQGSVLSFEGGDISGVLVPAVYVGMCFSSFCWHVEDHHLYSLNYMHWGAPKLWYGVPGKDAVNLESAMRKHLPELFEEQPDLLHNLVTQFSPSLLKSEGVHVYRCVQHEGEFVLTFPRAYHAGFNCGFNCAEAVNVAPIDWLPIGHNAVELYREQARKITISHDKLLLGAAREAIRAQWDILFLKRNTADNMRWKSICGADSTIFKALKARIETELVQRKTLGVPAQSRKMDAEFDSIDRECALCYYDLHLSASGCPCCPEKYACLVHAKQLCSCDWDKRFFLFRYDVNELNILADALGGKLSAIHRWGVSDLGLSLSSCVKREKVQDSKTVRRLTDGPRRSYMSQASAVSLVSSSTSNEQKDEGNKIMKIASPQTNNVCPSVEQRKSENISPLKEPCVRNELSCTTNSDSNGLQYNGGLGGHKGSAPGLPVSSSPSFSSNVATRPISTSSVSMKIVQGLVASKSCIQASSRTGDSRSLLGEHHNRSPAMIHDGTNMKSSLESSNNSCRLIASDYNATPCHSSKDQVLVTPGTNASVVTLKDSSQVHSASSQQFVRTGPWTQSASHEASSPSTSALKPSLDPPAMKNLYGGFTQGSAHPGPPSFSNQQPNDGRLQRTSESLPGVEARARGHPTVTAQPALEIHSRNGGAQKGPRIANVVHRFKCSVEPLEIGVVLSGRLWSSSQAIFPKGFRSRVKYFSIVDPIQMAYYISEILDAGMQGPLFMVKLENCPGEVFINLSPTKCWNMVRERLNMEIRRQLNMGKSNLPTLQPPGSVDGLEMFGLLSPPIVQAIWARDRDHICTEYWRSRPHVLIEDPNNRHMLSQGPPLLALRGLIQRANRDELQVLRSLMTNSNNLDDSSRQQAAHIIEEEIAKQLC
no: H3K4me3 demethylation activity (H3K4me3) | H3K4me2 demethylation activity (H3K4me2) | H3K4me1 demethylation activity (H3K4me1)
